Laboratory results reported in US20210079109A1 (Regeneron, published 2021).

Tests used:
[1] = target: T1, recombinant human CD63 extracellular loop 2 expressed with a C-terminal Myc-Myc-hexahistidine (human); assay: SPR Biacore, mAb captured, 25C
T1 construct: also called hCD63 EC loop 2-MMH; human CD63 EC loop 2-MMH
Method in brief: (§1)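 Anti-CD63 mAbs captured on anti-mouse Fc or anti-human Fab surfaces; CD63 EC2 reagents flowed in HBS-ET, pH 7.4, at 25° C or 37° C. ka and kd from 1:1 binding model with mass transport limitation; KD and t½ calculated from kinetic rates.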

[2] = target: T2, recombinant human CD63 extracellular loop 2 expressed with a C-terminal human Fc tag (human); assay: SPR Biacore, mAb captured, 25C
T2 construct: also called hCD63 EC loop 2-hFc; human CD63 EC loop 2-Fc
Method in brief: as §1

[3] = target: T1, recombinant human CD63 extracellular …; assay: SPR Biacore, mAb captured, 37C
Method in brief: as §1

[4] = target: T2, recombinant human CD63 extracellular …; assay: SPR Biacore, mAb captured, 37C
Method in brief: as §1

[5] = target: T3, human CD63 (human, UniProt P08962 2-238); assay: ECL, NIH3T3/hCD63 cells; NIH3T3/hCD63 cells, ratio at 3.7 nM Ab: binds
T3 construct: stably transfected in NIH3T3/hCD63; The cell line is named under assay; also called hCD63
T3 sequence: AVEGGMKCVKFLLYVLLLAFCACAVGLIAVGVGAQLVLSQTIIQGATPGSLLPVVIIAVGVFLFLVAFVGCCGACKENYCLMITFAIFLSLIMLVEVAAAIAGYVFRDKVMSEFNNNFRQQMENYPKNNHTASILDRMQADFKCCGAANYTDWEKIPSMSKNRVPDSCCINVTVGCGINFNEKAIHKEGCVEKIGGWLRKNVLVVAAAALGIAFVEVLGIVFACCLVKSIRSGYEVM
Description: (§2) LNCAP cells were determined to have a lower human CD63 copy number than U87MG cells. Non-transfected NIH3T3 cells, which have no detectable expression of human CD63 by fluorescence activated cell sorting (FACS), were included as a negative control.
(§3) Briefly, cell lines were rinsed once in PBS buffer without Ca²⁺/Mg²⁺ and incubated for 10 minutes at 37° C. with Enzyme Free Cell Dissociation Solution (Millipore, Cat #S-004-C) to detach the cells. Cells were then washed once with PBS with Ca²⁺/Mg²⁺ and counted with a Cellometer™ Auto T4 cell counter (Nexcelom Bioscience, LLC). Approximately 2.0×10⁴ NIH3T3/hCD63, LNCAP, U87MG or NIH3T3 cells were seeded separately onto 96-well carbon electrode plates […]) and were then incubated for one hour at 37° C. Nonspecific binding sites were blocked with 2% BSA (w/v) in PBS with Ca²⁺/Mg²⁺ for one hour at room temperature (RT). […] Plates were washed and then incubated with Read Buffer (MSD, Cat #R92TD-2) according to the manufacturer's instructions. Luminescent signals were measured using a SECTOR Imager (MSD).

[6] = target: T3, human CD63; assay: ECL, NIH3T3/hCD63 cells; NIH3T3/hCD63 cells (engineered, CD63 overexpressed): binds
Description: as §2, §3

[7] = target: T3, human CD63; assay: ECL, LNCAP cells; LNCAP cells (lower CD63 copy number), ratio at 3.7 nM Ab: non-binder
Description: as §2, §3

[8] = target: T3, human CD63; assay: ECL, U87MG cells; U87MG cells (endogenous CD63), ratio at 3.7 nM Ab: binds, EC50 inconclusive
Description: as §2, §3

T1 sequence (chain, as listed by the source limits assumed): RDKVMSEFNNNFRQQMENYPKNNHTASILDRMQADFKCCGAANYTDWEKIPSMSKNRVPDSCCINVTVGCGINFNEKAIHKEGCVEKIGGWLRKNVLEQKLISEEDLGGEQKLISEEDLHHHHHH
T2 sequence (chain, as listed by the source limits assumed): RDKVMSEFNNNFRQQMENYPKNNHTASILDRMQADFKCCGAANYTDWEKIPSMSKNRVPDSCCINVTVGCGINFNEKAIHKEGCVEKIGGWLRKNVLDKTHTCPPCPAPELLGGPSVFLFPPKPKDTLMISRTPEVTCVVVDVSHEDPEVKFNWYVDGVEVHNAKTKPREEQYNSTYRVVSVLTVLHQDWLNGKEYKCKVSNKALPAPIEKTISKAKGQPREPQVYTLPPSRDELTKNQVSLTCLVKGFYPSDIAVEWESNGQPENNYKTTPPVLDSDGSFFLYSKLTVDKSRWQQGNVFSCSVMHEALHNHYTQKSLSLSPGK

100 nM Ag Bound (RU) [1]: 11 RU
Kd [1]: 11700 nM
koff [1]: 0.0309 s⁻¹
kon [1]: 2640 M⁻¹ s⁻¹
t1/2 [1]: 0.4 min
100 nM Ag Bound (RU) [2]: 136 RU
Kd [2]: 2.58 nM
koff [2]: 0.000453 s⁻¹
kon [2]: 175000 M⁻¹ s⁻¹
t1/2 [2]: 26 min
100 nM Ag Bound (RU) [3]: 3 RU
Kd [3]: 174 nM
koff [3]: 0.0917 s⁻¹
kon [3]: 528000 M⁻¹ s⁻¹
t1/2 [3]: 0.1 min
100 nM Ag Bound (RU) [4]: 111 RU
Kd [4]: 6.5 nM
koff [4]: 0.00207 s⁻¹
kon [4]: 318000 M⁻¹ s⁻¹
t1/2 [4]: 6 min
binding ratio at 3.7 nM vs NIH3T3 [5]: 14 fold
EC50 [6]: 7.4 nM
binding ratio at 3.7 nM vs NIH3T3 [7]: 1 fold
binding ratio at 3.7 nM vs NIH3T3 [8]: 5 fold
B1: H4H11998P2 (antibody, V domains shown)
VH: QVQLVESGGGLVKPGGSLRLSCAASGFSFSDYYITWIRQAPGKGLEWVSYINTGGYTMYYADSVKGRFTISRDNAKNSLYLQMNNLRAEDTAVYYCTRDRRYNFGLDYWGQGTLVTVSS
VL: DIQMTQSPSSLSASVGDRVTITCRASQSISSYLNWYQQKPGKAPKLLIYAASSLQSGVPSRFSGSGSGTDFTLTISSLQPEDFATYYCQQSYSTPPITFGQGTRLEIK
